Consider two proteins from publication PMC9899272, “An engineered variant of MECR reductase reveals indispensability of long-chain acyl-ACPs for mitochondrial respiration” (Nature Communications, 2023).

One may read the stoichiometry N as a count of units in the complex or per binding partner. As usually defined, the Km is the substrate concentration at which the rate is half of its maximum. The kcat is the number of substrate molecules converted per active site and unit of time at saturation. For orientation: kcat/Km means the turnover number divided by the Michaelis constant.

Data set [1] concerns the molecule itself. Description: crystal structure; sitting drop vapor diffusion at +4 °C, 16.82% PEG 6000, 1 M NaCl, 100 mM acetic acid, pH 4.5; trigonal space group P3(1)21; one chain in the asymmetric unit, dimer via a crystallographic 2-fold axis.
Substrate in data set [2]: CCCCCCC/C=C/C(=O)SCCNC(=O)CCNC(=O)[C@H](O)C(C)(C)COP(=O)(O)OP(=O)(O)OC[C@H]1O[C@@H](n2cnc3c(N)ncnc32)[C@H](O)[C@@H]1OP(=O)(O)O
Description: spectrophotometric 2E-enoyl-CoA reductase assay, Michaelis-Menten fit. It counts as biochemical, Homo sapiens. Conditions: 125 µM NADPH, 100 µg bovine serum albumin, 50 mM potassium phosphate pH 7.5, 25 °C. The source says:
(§1) spectrophotometric 2E-enoyl-CoA reductase assay, Michaelis-Menten fit on MECR

Substrate in data set [3]: CCCCC/C=C/C(=O)SCCNC(=O)CCNC(=O)[C@H](O)C(C)(C)COP(=O)(O)OP(=O)(O)OC[C@H]1O[C@@H](n2cnc3c(N)ncnc32)[C@H](O)[C@@H]1OP(=O)(O)O
The data set is described as above. It counts as biochemical, Homo sapiens. Conditions: 125 µM NADPH, 100 µg bovine serum albumin, 50 mM potassium phosphate pH 7.5, 25 °C.
From the text: as §1

Substrate in data set [4]: CCC/C=C/C(=O)SCCNC(=O)CCNC(=O)[C@H](O)C(C)(C)COP(=O)(O)OP(=O)(O)OC[C@H]1O[C@@H](n2cnc3c(N)ncnc32)[C@H](O)[C@@H]1OP(=O)(O)O
The data set is described as above. It counts as biochemical, Homo sapiens. To be noted: 125 µM NADPH, 100 µg bovine serum albumin, 50 mM potassium phosphate pH 7.5, 25 °C.
From the text: as §1

B1: wild-type human MECR (2E-enoyl-ACP reductase) with C-terminal His-tag (enzyme, UniProt Q9BV79 31-373, looked up)
chain: ASSYSASAEPARVRALVYGHHGDPAKVVELKNLELAAVRGSDVRVKMLAAPINPSDINMIQGNYGFLPELPAVGGNEGVAQVVAVGSNVTGLKPGDWVIPANAGLGTWRTEAVFSEEALIQVPSDIPLQSAATLGVNPCTAYRMLMDFEQLQPGDSVIQNASNSGVGQAVIQIAAALGLRTINVVRDRPDIQKLSDRLKSLGAEHVITEEELRRPEMKNFFKDMPQPRLALNCVGGKSSTELLRQLARGGTMVTYGGMAKQPVVASVSLLIFKDLKLRGFWLSQWKKDHSPDQFKELILTLCDLIRRGQLTAPACSQVPLQDYQSALEASMKPFISSKQILTM
notes: the first N-terminal residues of the crystallised protein are A31-A41 (not defined in the maps); the C-terminus is seen till L374, followed by the six-residue His-tag; L374 lies beyond M373, the last visible residue of the earlier structures, and is probably a vector residue before the His-tag; also called wild-type MECR; MECR WT; source: E. coli BL 21 Star (DE3) pLysS, purified (Ni-NTA, …)
As to B1, the “stoichiometry N” value in data set [1] amounted to 2. Further, in data set [2], the Michaelis-Menten constant (Km) is recorded as 15.9 ± 2.2 µM, the kcat turned out to be 0.62 ± 0.02 s⁻¹ and the kcat/Km amounted to 40000 M⁻¹ s⁻¹. In data set [3], the Km was 23.2 ± 5.4 µM, the catalytic constant (kcat) is 1.8 ± 0.13 s⁻¹ and the kcat/Km was 80000 M⁻¹ s⁻¹. Further, in data set [4], the Km is 90.6 ± 26.5 µM, the turnover number (kcat) came out at 0.99 ± 0.22 s⁻¹ and the catalytic efficiency (kcat/Km) was determined as 10000 M⁻¹ s⁻¹.

B2: MECR G165Q variant with C-terminal His-tag (enzyme, human, UniProt Q9BV79 31-373, looked up)
chain: ASSYSASAEPARVRALVYGHHGDPAKVVELKNLELAAVRGSDVRVKMLAAPINPSDINMIQGNYGFLPELPAVGGNEGVAQVVAVGSNVTGLKPGDWVIPANAGLGTWRTEAVFSEEALIQVPSDIPLQSAATLQVNPCTAYRMLMDFEQLQPGDSVIQNASNSGVGQAVIQIAAALGLRTINVVRDRPDIQKLSDRLKSLGAEHVITEEELRRPEMKNFFKDMPQPRLALNCVGGKSSTELLRQLARGGTMVTYGGMAKQPVVASVSLLIFKDLKLRGFWLSQWKKDHSPDQFKELILTLCDLIRRGQLTAPACSQVPLQDYQSALEASMKPFISSKQILTM
notes: the first N-terminal residues of the crystallised protein are A31-A41 (not defined in the maps); the C-terminus is seen till L374, followed by the six-residue His-tag; L374 is probably a vector residue before the His-tag; also called G165Q MECR; G165Q mutant; source: E. coli BL 21 Star (DE3) pLysS, purified (Ni-NTA, size-exclusion chromatography); not shown: His6, C-terminal, kept
For the protein B2, the “stoichiometry N” value in data set [1] amounted to 2. Moreover, in data set [2], the Km came out at 8.15 ± 1.54 µM, the catalytic constant (kcat) was determined as 0.3 ± 0.02 s⁻¹ and the kcat/Km turned out to be 40000 M⁻¹ s⁻¹. In data set [3], the Km turned out to be 114.1 ± 16.2 µM, the catalytic constant (kcat) was found to be 12.4 ± 1.9 s⁻¹ and the kcat/Km is 110000 M⁻¹ s⁻¹. In data set [4], the Michaelis-Menten constant (Km) stood at 111.2 ± 17.3 µM, the turnover number (kcat) amounted to 3.49 ± 0.33 s⁻¹ and the kcat/Km was determined as 30000 M⁻¹ s⁻¹.
